Publication PMC7058304 (PLoS ONE, 2020)

Legend:
Settings in all cases: both partners purified
[1] = molecular target: T1, Recombinant purified human PD-1 protein, residues Leu25-Thr168, with a C-terminal 6-His tag (human, UniProt Q15116); experiment: SPR; Biacore 8K, flat chips (average of C1 and CMD-P); mAbs captured on goat anti-human IgG Fc; PD-1 His-tagged monomer analyte 0.4-100 nM; 25 C; HBS-EP+ pH 7.4; 1:1 Langmuir fit with mass transport; apparent
T1 construct: programmed cell death protein 1 (PD-1), human, residues Leu25-Thr168; monomer; the results call it wild-type or full length PD-1 against the P35-Q167 fragment; also called PD-1-His; PD-1 His-tagged monomer; source: bought: R&D Systems; not shown: His6, C-terminal, kept
T1 sequence (Q15116 25-168): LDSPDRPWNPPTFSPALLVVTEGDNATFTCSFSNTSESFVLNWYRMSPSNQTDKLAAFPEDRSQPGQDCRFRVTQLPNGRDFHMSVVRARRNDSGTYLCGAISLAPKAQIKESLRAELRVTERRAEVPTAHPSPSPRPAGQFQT

[2] = molecular target: T1, Recombinant purified human PD-1 …; experiment: SPR; Carterra LSA, CMD-P (flat) chip; mAbs captured on goat anti-human IgG Fc in a 384-spot array; PD-1-His analyte 0.5-1000 nM, 5 min association, 20 min dissociation; HBS-ET + 0.5 mg/ml BSA; 1:1 Langmuir fit; mean of spots; apparent
[3] = molecular target: T1, Recombinant purified human PD-1 …; experiment: SPR; Biacore 8K, 3D-hydrogel chips (average of CM5 and CMD-200M); mAbs captured on goat anti-human IgG Fc; PD-1 His-tagged monomer analyte 0.4-100 nM; 25 C; HBS-EP+ pH 7.4; 1:1 Langmuir fit with mass transport; apparent
[4] = molecular target: T2, biotinylated His-tagged PD-1 (Homo sapiens, UniProt Q15116, biotin); experiment: MSD solution equilibrium titration; 100 pM biotinylated His-tagged PD-1 titrated with mAb (top 100, 50 or 10 nM binding sites), 18 h at room temperature; free antigen captured on mAb-coated MSD plates; relative KD
T2 construct: PD-1, His-tagged, biotinylated, used in the MSD experiments; probably the R&D Systems Leu25-Thr168 protein after biotinylation
T2 sequence (Q15116 whole entry, looked up, tested part not stated): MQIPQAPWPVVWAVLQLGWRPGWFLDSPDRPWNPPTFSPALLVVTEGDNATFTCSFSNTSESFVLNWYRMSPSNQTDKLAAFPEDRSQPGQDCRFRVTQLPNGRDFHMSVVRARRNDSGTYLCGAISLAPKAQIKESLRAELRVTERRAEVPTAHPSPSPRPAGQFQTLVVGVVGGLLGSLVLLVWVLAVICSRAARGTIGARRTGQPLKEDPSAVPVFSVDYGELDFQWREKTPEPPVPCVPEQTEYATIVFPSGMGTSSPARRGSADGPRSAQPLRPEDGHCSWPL

[5] = molecular target: T1, Recombinant purified human PD-1 …; experiment: KinExA equilibrium; fixed mAb orientation: PD-1-His monomer titrated (0.1 pM-1.2 uM) into fixed mAb, equilibrated up to 64 h; free mAb captured on beads coated with Fc-fused PD-1; about 23 C; PBS pH 7.4 + 0.05% azide + 0.01% BSA; N-curve analysis; apparent
[6] = molecular target: T3, Recombinant purified human PD-1 protein, residues Leu25-Thr168, with a C-terminal 6-His tag (Homo sapiens, UniProt Q15116); experiment: KinExA; 'Kinetics, Direct' method, solution phase: mAb mixed with PD-1, free mAb probed repeatedly pre-equilibrium on PD-1-coupled PMMA beads, Alexa647 goat anti-human IgG detection; ka fitted (best fit, 95% CI), kd calculated from ka and KD
T3 construct: human PD-1 (programmed cell death protein 1), residues Leu25-Thr168; monomer; used as analyte in SPR and as titrant in KinExA; also called PD-1-His; PD-1-His monomer; source: bought: R&D Systems (catalog# 8986-PD, lot# DDJM0417041); not shown: His6, C-terminal, kept
T3 sequence (Q15116 25-168): as the sequence (Q15116 25-168) above

[7] = molecular target: T3, Recombinant purified human PD-1 …; experiment: SPR; Carterra LSA, CMD-P (flat) chip; mAb captured by amine-coupled goat anti-human IgG Fc, PD-1-His as analyte 0.5-1000 nM, 5 min association, 20 min dissociation; run buffer with 0.5 mg/ml BSA; global 1:1 Langmuir fit; mean (stdev) of 8-12 spots per mAb; KD deduced from kd/ka; apparent

B1: mAb16 (analog of dostarlimab) (antibody, V domains shown)
VH: EVQLLESGGGLVQPGGSLRLSCAASGFTFSSYDMSWVRQAPGKGLEWVSTISGGGSYTYYQDSVKGRFTISRDNSKNTLYLQMNSLRAEDTAVYYCASPYYAMDYWGQGTTVTVSS
VL: DIQLTQSPSFLSAYVGDRVTITCKASQDVGTAVAWYQQKPGKAPKLLIYWASTLHTGVPSRFSGSGSGTEFTLTISSLQPEDFATYYCQHYSSYPWTFGQGTKLEIK
notes: VH; IgG4 heavy-chain constant region with stabilizing 226CPPC hinge; VL; IgG4 analog; source: HEK293 suspension cells, cotransfected, purified (Protein A)
- Kd [1]: 0.87 nM
- Kd [2]: 1.6 nM
- koff [2]: 0.00039 s⁻¹
- kon [2]: 240000 M⁻¹ s⁻¹
- Kd [3]: 1.7 nM
- Kd [4]: 0.18 nM
- Kd [5]: 0.2 nM

B2: mAb16 (analog of dostarlimab) (antibody, V domains shown)
VH: EVQLLESGGGLVQPGGSLRLSCAASGFTFSSYDMSWVRQAPGKGLEWVSTISGGGSYTYYQDSVKGRFTISRDNSKNTLYLQMNSLRAEDTAVYYCASPYYAMDYWGQGTTVTVSS
VL: DIQLTQSPSFLSAYVGDRVTITCKASQDVGTAVAWYQQKPGKAPKLLIYWASTLHTGVPSRFSGSGSGTEFTLTISSLQPEDFATYYCQHYSSYPWTFGQGTKLEIK
notes: VH; IgG4 heavy-chain constant region with a stabilizing 226CPPC hinge modification; IgG4; isotype-matched analog made from published variable regions, not the clinical molecule; source: HEK293 suspension cells, cotransfected, purified (Protein A)
- koff [6]: 0.00013 s⁻¹
- kon [6]: 639000 M⁻¹ s⁻¹
- Kd [7]: 1.67 nM
- koff [7]: 0.000421 s⁻¹
- kon [7]: 252000 M⁻¹ s⁻¹

B3: mAb23 (analog of cemiplimab) (antibody, V domains shown)
VH: EVQLLESGGVLVQPGGSLRLSCAASGFTFSNFGMTWVRQAPGKGLEWVSGISGGGRDTYFADSVKGRFTISRDNSKNTLYLQMNSLKGEDTAVYYCVKWGNIYFDYWGQGTLVTVSS
VL: DIQMTQSPSSLSASVGDSITITCRASLSINTFLNWYQQKPGKAPNLLIYAASSLHGGVPSRFSGSGSGTDFTLTIRTLQPEDFATYYCQQSSNTPFTFGPGTVVDFR
notes: as for B1
- Kd [1]: 0.82 nM
- Kd [2]: 1.5 nM
- koff [2]: 0.00028 s⁻¹
- kon [2]: 190000 M⁻¹ s⁻¹
- Kd [3]: 1.9 nM
- Kd [4]: 0.13 nM
- Kd [5]: 0.22 nM

B4: mAb23 (analog of cemiplimab) (antibody, V domains shown)
VH: EVQLLESGGVLVQPGGSLRLSCAASGFTFSNFGMTWVRQAPGKGLEWVSGISGGGRDTYFADSVKGRFTISRDNSKNTLYLQMNSLKGEDTAVYYCVKWGNIYFDYWGQGTLVTVSS
VL: DIQMTQSPSSLSASVGDSITITCRASLSINTFLNWYQQKPGKAPNLLIYAASSLHGGVPSRFSGSGSGTDFTLTIRTLQPEDFATYYCQQSSNTPFTFGPGTVVDFR
notes: as for B2
- koff [6]: 0.00011 s⁻¹
- kon [6]: 502000 M⁻¹ s⁻¹
- Kd [7]: 1.52 nM
- koff [7]: 0.000297 s⁻¹
- kon [7]: 195000 M⁻¹ s⁻¹

B5: mAb03 (analog of tislelizumab) (antibody, V domains shown)
VH: QVQLQESGPGLVKPSETLSLTCTVSGFSLTSYGVHWIRQPPGKGLEWIGVIYADGSTNYNPSLKSRVTISKDTSKNQVSLKLSSVTAADTAVYYCARAYGNYWYIDVWGQGTTVTVSS
VL: DIVMTQSPDSLAVSLGERATINCKSSESVSNDVAWYQQKPGQPPKLLINYAFHRFTGVPDRFSGSGYGTDFTLTISSLQAEDVAVYYCHQAYSSPYTFGQGTKLEIK
notes: as for B1
- Kd [1]: 0.13 nM
- Kd [2]: < 0.099 nM
- koff [2]: < 4.3e-05 s⁻¹
- kon [2]: 430000 M⁻¹ s⁻¹
- Kd [3]: 0.26 nM
- Kd [4]: 0.024 nM
- Kd [5]: 0.038 nM

B6: mAb03 (analog of tislelizumab) (antibody, V domains shown)
VH: QVQLQESGPGLVKPSETLSLTCTVSGFSLTSYGVHWIRQPPGKGLEWIGVIYADGSTNYNPSLKSRVTISKDTSKNQVSLKLSSVTAADTAVYYCARAYGNYWYIDVWGQGTTVTVSS
VL: DIVMTQSPDSLAVSLGERATINCKSSESVSNDVAWYQQKPGQPPKLLINYAFHRFTGVPDRFSGSGYGTDFTLTISSLQAEDVAVYYCHQAYSSPYTFGQGTKLEIK
notes: as for B2
- koff [6]: 6.82e-05 s⁻¹
- kon [6]: 1.8e+06 M⁻¹ s⁻¹
- Kd [7]: < 0.1 nM
- koff [7]: < 4.27e-05 s⁻¹
- kon [7]: 432000 M⁻¹ s⁻¹
